T1: Mouse Semaphorin3A-Sema Domain, TPP-19069 (mouse, UniProt O08665 21-569)
T1 construct: produced inhouse
T1 sequence: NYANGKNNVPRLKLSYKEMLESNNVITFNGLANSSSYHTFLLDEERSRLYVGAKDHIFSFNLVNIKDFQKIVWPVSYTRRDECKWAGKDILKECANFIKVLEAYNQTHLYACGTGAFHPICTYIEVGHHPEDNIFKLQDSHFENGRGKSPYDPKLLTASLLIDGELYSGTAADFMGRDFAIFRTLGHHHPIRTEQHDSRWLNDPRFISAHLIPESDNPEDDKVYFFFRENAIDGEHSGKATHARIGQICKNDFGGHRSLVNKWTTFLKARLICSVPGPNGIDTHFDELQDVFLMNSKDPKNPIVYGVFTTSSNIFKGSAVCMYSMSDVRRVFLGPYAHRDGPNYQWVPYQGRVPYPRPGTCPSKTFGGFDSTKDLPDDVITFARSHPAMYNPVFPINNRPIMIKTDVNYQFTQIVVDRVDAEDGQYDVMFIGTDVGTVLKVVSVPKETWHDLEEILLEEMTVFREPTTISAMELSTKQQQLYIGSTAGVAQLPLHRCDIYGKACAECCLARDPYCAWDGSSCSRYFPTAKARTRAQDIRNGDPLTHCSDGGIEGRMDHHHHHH

T2: Cyno Semaphorin3A-Sema Domain, TPP-19122 (cynomolgus (Macaca fascicularis), UniProt Q63548 21-569 (rat entry), limits assumed)
T2 construct: produced inhouse
T2 chain: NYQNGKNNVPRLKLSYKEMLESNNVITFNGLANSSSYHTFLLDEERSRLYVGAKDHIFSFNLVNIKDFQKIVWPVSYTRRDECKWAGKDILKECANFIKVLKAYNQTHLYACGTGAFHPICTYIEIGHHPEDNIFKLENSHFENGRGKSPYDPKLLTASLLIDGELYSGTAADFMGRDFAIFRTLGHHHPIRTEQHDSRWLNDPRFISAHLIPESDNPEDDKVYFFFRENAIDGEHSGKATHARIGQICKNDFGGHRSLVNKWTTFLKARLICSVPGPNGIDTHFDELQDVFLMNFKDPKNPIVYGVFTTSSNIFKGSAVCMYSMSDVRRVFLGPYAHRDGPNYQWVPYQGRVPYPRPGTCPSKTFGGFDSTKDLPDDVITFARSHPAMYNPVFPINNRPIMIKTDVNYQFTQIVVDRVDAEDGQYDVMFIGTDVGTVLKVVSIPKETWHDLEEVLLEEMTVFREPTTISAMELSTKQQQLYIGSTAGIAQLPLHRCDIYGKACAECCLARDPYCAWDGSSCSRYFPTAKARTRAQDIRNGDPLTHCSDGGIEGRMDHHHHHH

T3: Human Semaphorin3A-Sema Domain, TPP-19068 (human, UniProt Q14563 21-569)
T3 construct: produced inhouse in HEK293-6E; also called human monovalent Sema3A domain
T3 sequence: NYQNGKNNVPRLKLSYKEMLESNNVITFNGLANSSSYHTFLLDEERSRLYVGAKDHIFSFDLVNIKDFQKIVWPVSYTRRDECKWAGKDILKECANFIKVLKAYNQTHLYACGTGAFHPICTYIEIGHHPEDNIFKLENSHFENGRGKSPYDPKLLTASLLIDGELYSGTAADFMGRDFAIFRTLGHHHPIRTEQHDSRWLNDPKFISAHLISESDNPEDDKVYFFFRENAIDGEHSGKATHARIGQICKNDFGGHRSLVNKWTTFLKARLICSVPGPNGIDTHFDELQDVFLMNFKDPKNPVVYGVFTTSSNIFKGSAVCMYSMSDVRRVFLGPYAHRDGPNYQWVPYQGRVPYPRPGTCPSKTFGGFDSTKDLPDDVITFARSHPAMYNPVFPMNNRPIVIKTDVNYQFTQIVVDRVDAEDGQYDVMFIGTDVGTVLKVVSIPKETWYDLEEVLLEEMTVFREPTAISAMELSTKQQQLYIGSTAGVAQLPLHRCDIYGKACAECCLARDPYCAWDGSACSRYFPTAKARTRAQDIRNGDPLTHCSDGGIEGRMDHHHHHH


How the values were obtained:
Test in all cases: SPR, captured antibody, Sema3A domain analyte
[1] = target: T1, Mouse Semaphorin3A-Sema Domain, …
Experimental: (§1) To assess the binding kinetics and affinity of anti-Sema3A antibodies as well as their species cross-reactivity profile, binding assays were conducted using surface plasmon resonance (SPR). Binding assays were performed on a Biacore T200 instrument or on a Biacore 8K+ instrument (Cytiva) at 25° C. using assay buffer HBS P+, 300 mM NaCl, 0.75 mM CaCl₂, 2.5 mM MgCl₂, 1 mg/ml BSA, 0.05% NaN₃. Antibodies were captured either via anti-human Fc IgGs (“Human antibody capture kit”, Order No. BR100839, Cytiva) or in case of Fc-tagged analytes by anti-human Fab IgGs (“Human Fab capture kit”, Order No. 28958325, Cytiva) covalently amine coupled to a Series S CM5 sensor chip (Cytiva). The amine coupling was carried out according to the manufacturer's instructions using 1-ethyl-3-(3-dimethylaminopropyl) carbodiimide hydrochloride (EDC), N-hydroxysuccinimide (NHS) and ethanolamine HCl, pH 8.5 (“Amine Coupling Kit” BR-1000-50, Cytiva.). For phage display hits Fc-tagged human and mouse Sema3A was used as analytes in a concentration range from 1.56-200 nM. Human, mouse, cynomolgus, rat, dog and pig monovalent Sema3A domain were used as analytes in a concentration series from […] in multi cycle kinetics mode or in 100 nM for binding analysis only. The sensor surface was regenerated with glycine pH 2.0 after each antigen injection. Obtained sensorgrams were double referenced (subtraction of reference flow cell signal and buffer injection) and were fitted to a 1:1 Langmuir binding model to derive kinetic data using the Biacore T200 Evaluation software.

[2] = target: T2, Cyno Semaphorin3A-Sema Domain, TPP-19122
Experimental: as §1

[3] = target: T3, Human Semaphorin3A-Sema Domain, …
Experimental: as §1

Binder | Kd [1] | Kd [2] | Kd [3]
TPP-30788 (antibody, human IgG1, kappa, V domains shown, prior art, WO 2020/225400; also called BI clone I; Böhringer (BI) Clone I) VH: EVQLVESGGGLVQPGGSLRLSCAASGFTFSSYYMSWVRQAPGKGLEWVSTIIKSGGYAYYPDSVKDRFTISRDNSKNTLYLQMSSLRAEDTAVYYCVRGGQGAMDYWGQGTTVTVSS VL: EIVLTQSPATLSLSPGERATLSCRASQSIGDYLHWYQQKPGQAPRLLIKYASQSISGIPARFSGSGSGTDFTLTITSLEPEDFAVYYCQQGYSFPYTFGGGTKLEIKR | 0.043 nM | 0.078 nM | 0.018 nM
TPP-30789 (antibody, human IgG1, kappa, V domains shown, prior art, WO 2020/225400; also called BI clone II; Böhringer (BI) Clone II) VH: EVQLVESGGGLVQPGGSLRLSCAASGFPFSSYYMSWVRQAPGKGLEWVSTIIKSGGYAYYPDSVKDRFTISRDNSKNTLYLQMSSLRAEDTAVYYCVRGGQGAMDYWGQGTTVTVSS VL: EIVLTQSPATLSLSPGERATLSCRASQSIGDYLHWYQQKPGQAPRLLIKYASQSISGIPARFSGSGSGTDFTLTITSLEPEDFAVYYCQQGYSFPYTFGGGTKLEIKR | 0.042 nM | 0.079 nM | 0.022 nM
TPP-23337 (antibody, human IgG4 S228P, lambda, V domains shown) VH: EVQLLESGGGLVQPGGSLRLSCAASGFTFSSYAMSWVRQAPGKGLEWVSAIGYGGDTYYADSVKGRFTISRDNSKNTLYLQMNSLRAEDTAVYYCARRDDYTSRDAFDYWGQGTLVTVSS VL: not shown | 0.05 nM | 0.026 nM | 0.05 nM
TPP-15370 (antibody, human IgG1, lambda, V domains shown, human IgG1; also called IgG1, hit from panning; parental mAb) VH: EVQLLESGGGLVQPGGSLRLSCAASGFTFSSYGMHWVRQAPGKGLEWVSAIGTGGDTYYADSVMGRFTISRDNSKNTLYLQMNSLRAEDTAVYYCARRDDYTSRDAFDVWGQGTLVTVSS VL: not shown | 7.2 nM | 40 nM | 10 nM
TPP-23375 (antibody, human IgG4 S228P, lambda, V domains shown) VH: EVQLLESGGGLVQPGGSLRLSCAASGFTFYSYAMSWVRQAPGKGLEWVSAIGYGGDTYYADSVKGRFTISRDNSKNTLYLQMNSLRAEDTAVYYCARRDDYTSRDAFDYWGQGTLVTVSS VL: not shown | 0.042 nM | 0.045 nM | 0.053 nM
TPP-23345 (antibody, human IgG4 S228P, lambda, V domains shown) VH: EVQLLESGGGLVQPGGSLRLSCAASGFTFSSYAMSWVRQAPGKGLEWVSAIGYGGDTYYADSVKGRFTISRDNSKNTLYLQMNSLRAEDTAVYYCARRDDYTSRDAFDYWGQGTLVTVSS VL: not shown | 0.063 nM | 0.062 nM | 0.065 nM
TPP-23373 (antibody, human IgG4 S228P, lambda, V domains shown) VH: EVQLLESGGGLVQPGGSLRLSCAASGFTFYSYAMSWVRQAPGKGLEWVSAIGYGGDTYYADSVKGRFTISRDNSKNTLYLQMNSLRAEDTAVYYCARRDDYTSRDAFDYWGQGTLVTVSS VL: not shown | 0.083 nM | 0.072 nM | 0.11 nM
TPP-23340 (antibody, human IgG4 S228P, lambda, V domains shown) VH: EVQLLESGGGLVQPGGSLRLSCAASGFTFSSYAMSWVRQAPGKGLEWVSAIGYGGDTYYADSVKGRFTISRDNSKNTLYLQMNSLRAEDTAVYYCARRDDYTSRDAFDYWGQGTLVTVSS VL: not shown | 0.059 nM | 0.06 nM | 0.022 nM
TPP-23334 (antibody, human IgG4 S228P, lambda, V domains shown) VH: EVQLLESGGGLVQPGGSLRLSCAASGFTFSSYAMSWVRQAPGKGLEWVSAIGYGGDTYYADSVKGRFTISRDNSKNTLYLQMNSLRAEDTAVYYCARRDDYTSRDAFDYWGQGTLVTVSS VL: not shown | 0.062 nM | 0.015 nM | 0.021 nM
TPP-23346 (antibody, human IgG4 S228P, lambda, V domains shown) VH: EVQLLESGGGLVQPGGSLRLSCAASGFTFYSYAMLWVRQAPGKGLEWVSAIGTGGDTYYADSVKGRFTISRDNSKNTLYLQMNSLRAEDTAVYYCARRDDYTSRDAFDYWGQGTLVTVSS VL: not shown | 0.064 nM | 0.061 nM | 0.072 nM
TPP-23341 (antibody, human IgG4 S228P, lambda, V domains shown) VH: EVQLLESGGGLVQPGGSLRLSCAASGFTFSSYAMSWVRQAPGKGLEWVSAIGYGGDTYYADSVKGRFTISRDNSKNTLYLQMNSLRAEDTAVYYCARRDDYTSRDAFDYWGQGTLVTVSS VL: not shown | 0.092 nM | 0.087 nM | 0.091 nM
TPP-23374 (antibody, human IgG4 S228P, lambda, V domains shown) VH: EVQLLESGGGLVQPGGSLRLSCAASGFTFYSYAMSWVRQAPGKGLEWVSAIGYGGDTYYADSVKGRFTISRDNSKNTLYLQMNSLRAEDTAVYYCARRDDYTSRDAFDYWGQGTLVTVSS VL: not shown | 0.016 nM | < 0.003 nM | 0.0081 nM
TPP-23338 (antibody, human IgG4 S228P, lambda, V domains shown) VH: EVQLLESGGGLVQPGGSLRLSCAASGFTFSSYAMSWVRQAPGKGLEWVSAIGYGGDTYYADSVKGRFTISRDNSKNTLYLQMNSLRAEDTAVYYCARRDDYTSRDAFDYWGQGTLVTVSS VL: not shown | 0.045 nM | 0.042 nM | 0.054 nM
TPP-23347 (antibody, human IgG4 S228P, lambda, V domains shown) VH: EVQLLESGGGLVQPGGSLRLSCAASGFTFYSYAMLWVRQAPGKGLEWVSAIGTGGDTYYADSVKGRFTISRDNSKNTLYLQMNSLRAEDTAVYYCARRDDYTSRDAFDYWGQGTLVTVSS VL: not shown | 0.055 nM | 0.054 nM | 0.06 nM
TPP-23298 (antibody, human IgG4 S228P, lambda, V domains shown) VH: EVQLLESGGGLVQPGGSLRLSCAASGFTFYSYAMSWVRQAPGKGLEWVSAIGTGGDTYYADSVKGRFTISRDNSKNTLYLQMNSLRAEDTAVYYCARRDDYTSRDAFDYWGQGTLVTVSS VL: not shown | 0.074 nM | 0.078 nM | 0.087 nM
TPP-17755 (antibody, human IgG1, lambda, V domains shown, also called Samsung; Samsung Prior Art F11) VH: EVQLLESGGGLVQTGGSLRLSCAASGFTFSDYAMSWVRQAPGKGLEWVSWIYYDSGSKYYADSVKGRFTISRDNSKNTLYLQMNSLRAEDTAVYYCAKLNGDFDYWGQGTLVTVSS VL: QSVLTQPPSASGTPGQRVTISCSGSSSNIGNNDVSWYQQLPGTAPKLLIYADSHRPSGVPDRFSGSKSGTSASLAISGLRSEDEADYYCGAWDSSLSGYVFGGGTKLTVLG | 3.9 nM | 14 nM | 6.9 nM

Source: patent US20240254222A1 (Bayer, published 2024)
